According to article doi:10.1101/2020.11.02.20223404:

Molecular target: angiotensin-converting enzyme 2 (ACE2) (human) (UniProt Q9BYF1)
Assay: other fluorescence titration

Sequence of UniProt Q9BYF1 (Q9BYF1 18-805): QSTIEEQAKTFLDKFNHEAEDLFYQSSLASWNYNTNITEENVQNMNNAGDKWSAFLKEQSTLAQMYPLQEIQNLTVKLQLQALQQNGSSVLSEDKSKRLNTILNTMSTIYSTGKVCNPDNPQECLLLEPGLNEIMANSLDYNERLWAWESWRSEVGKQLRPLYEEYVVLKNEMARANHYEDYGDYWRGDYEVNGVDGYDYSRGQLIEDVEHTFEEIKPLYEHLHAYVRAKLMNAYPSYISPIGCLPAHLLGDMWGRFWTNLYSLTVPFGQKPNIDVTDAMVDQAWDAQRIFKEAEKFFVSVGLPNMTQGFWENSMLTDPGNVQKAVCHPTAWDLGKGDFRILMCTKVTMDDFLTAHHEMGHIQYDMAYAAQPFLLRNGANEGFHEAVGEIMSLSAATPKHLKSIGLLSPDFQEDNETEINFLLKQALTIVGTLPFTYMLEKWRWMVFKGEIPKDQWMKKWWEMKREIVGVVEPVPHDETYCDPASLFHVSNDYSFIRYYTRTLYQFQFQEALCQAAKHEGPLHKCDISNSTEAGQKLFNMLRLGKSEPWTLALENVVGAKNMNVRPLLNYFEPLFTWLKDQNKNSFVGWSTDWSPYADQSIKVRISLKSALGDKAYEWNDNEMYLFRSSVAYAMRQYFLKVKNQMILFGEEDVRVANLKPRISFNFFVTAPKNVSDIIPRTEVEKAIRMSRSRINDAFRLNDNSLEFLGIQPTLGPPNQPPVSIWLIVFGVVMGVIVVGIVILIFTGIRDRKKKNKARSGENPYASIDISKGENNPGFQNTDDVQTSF

Question: For “SARS-CoV-1 spike receptor-binding domain (S RBD) (domain or fragment)”, which ΔF/F0 of the 1130 nm SWCNT emission peak after 90 min, 10 mg/L is on record?
Answer: 88.4%
